Test results: patent US20100173352A1

Target: human CD47/IAP receptor on HUCB-EPC (human) (UniProt Q08722)
Experiment: cell-based or functional assay

B1: mouse monoclonal anti-human CD47 IgG1 (clone B6H12) (antibody, from another filing, V domains shown)
VH: EVQLVESGGDLVKPGGSLKLSCAASGFTFSGYGMSWVRQTPDKRLEWVATITSGGTYTYYPDSVKGRFTISRDNAKNTLYLQIDSLKSEDTAIYFCARSLAGNAMDYWGQGTSVTVSS
VL: DIVMTQSPATLSVTPGDRVSLSCRASQTISDYLHWYQQKSHESPRLLIKFASQSISGIPSRFSGSGSGSDFTLSINSVEPEDVGVYYCQNGHGFPRTFGGGTKLEIK
B1 showed an HUCB-EPC adhesion onto gelatin-vitronectin after pre-treatment with 40 µg/ml, compared with BSA of 14.6% and an HUCB-EPC adhesion onto gelatin-vitronectin after pre-treatment with 40 µg/ml, compared with control mouse IgG1 of 16.6%.
